Test results reported in US6111073A, “Tyrosine phosphorylated cleavage furrow-associated proteins (PSTPIPs)” (Genentech, Inc., priority 1998, dated 2000).

How the values were obtained:
[1] = molecular target: in vitro transcribed and translated PSTPIP (murine); assay: peptide competition of the pull-down of in vitro translated PSTPIP by GST-PST-rich+CTH PTP HSCF
[2] = system: tyrosine phosphorylation of endogenous PSTPIP in Baf3 cells; assay: Tyrosine phosphorylation of endogenous PSTPIP in Baf3 cells (immunoprecipitation, anti-phosphotyrosine blot); type: cell-based, murine
Experimental: Baf3 cells were Iysed in 1% Triton, 50 mM HEPES, 10% glycerol and 5 mM EDTA containing 1 μg/ml aprotinin, PMSF, leupeptin and pepstatin with 1 mM Sodium Vanadate and 10 mM lodoacetic acid. Cells were treated with 0.1 mM Pervanadate for 4 hours before Iysis. Immunoprecipitations were performed in the vanadate-containing Iysis buffer using 1 μg/ml anti-PSTPIP polyclonal antibody and 400 μg of Iysate protein at 4° C. overnight. Western blots were performed using 1 μg/ml affinity purified anti-PSTPIP or 1:5000 dilution of commercial 4G10 anti-phosphotyrosine monoclonal (Upstate Biotech). Signal was detected by HRPO-ECL reagents (Pierce). The C221 -S mutant was as previously described (Cheng et al., (1996) supra). The PTP HSCF D197 -A mutant was generated using PCR. Mutagenesis primer D197A.F ([…]) (SEQ ID NO:24), corresponding to nucleotide 591, and primer D197A.R ([…]) (SEQ ID NO:25) which corresponds to the stop codon, were used in PCR to generate a fragment that could be cut with Mscl and Xbal. pRK.HA.38 WT, a plasmid which encoded the wild type enzyme under the control of the cytomegalovirus promoter (Cheng et al., (1996) supra), was digested with Clal and Mscl and the resulting 600 bp fragment was ligated with the Mscl-Xbal PCR fragment into the Clal and Xbal sites of pRK.tkneo. […]

[3] = molecular target: T1, interaction between PTP HSCF and PSTPIP (Mus musculus, UniProt P97814); assay: Peptide inhibition of in vitro binding: GST-PST-rich+CTH PTP HSCF precipitating in vitro translated PSTPIP; set-up: species or system murine; details: FIG. 4D
T1 construct: The longest two hybrid clone was used to isolate a full length cDNA from the original Baf3 two hybrid library; made in house; host or cells: PSTPIP: in vitro transcribed/translated (Promega TnT rabbit reticulocyte system); GST-PTP HSCF fusion: E. coli DH5-alpha, pGEX-4T-2
T1 sequence (P97814 1-415): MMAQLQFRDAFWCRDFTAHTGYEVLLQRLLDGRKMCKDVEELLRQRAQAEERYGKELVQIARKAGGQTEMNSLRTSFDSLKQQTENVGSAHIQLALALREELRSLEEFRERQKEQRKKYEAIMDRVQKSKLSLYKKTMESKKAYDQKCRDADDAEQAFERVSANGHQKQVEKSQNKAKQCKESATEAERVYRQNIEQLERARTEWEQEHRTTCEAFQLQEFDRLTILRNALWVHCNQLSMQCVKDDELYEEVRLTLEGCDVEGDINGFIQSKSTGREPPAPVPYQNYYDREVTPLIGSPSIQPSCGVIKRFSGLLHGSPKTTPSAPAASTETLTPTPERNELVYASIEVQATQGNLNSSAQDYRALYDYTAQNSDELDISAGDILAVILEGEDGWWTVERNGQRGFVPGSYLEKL
Experimental: The binding was carried out according to the method of Wong and Johnson (Wong et al., J. Biol. Chem. 271(35):20981-20984 (1996)). Briefly, 1 μg of plasmid with either the PSTPIP protein or PTP HSCF under the control of the Sp6 promoter was in vitro transcribed/translated using the Promega TnT Rabbit Reticulocyte system. Samples were diluted in 50 mM HEPES, pH 7.2, 1% triton X 100, 10% glycerol, 100 mM NaCI, 5 mM EDTA and 2 μg/ml each of leupeptin, pepstatin, aprotinin, and PMSF. […] This was reacted for 1 hour at 4° C. and then the resin washed 6 times in HEPES/Triton binding buffer before SDS gel electrophoresis. The peptides were synthesized on an automated Milligen 9050 Peptide Synthesizer using standard solid phase chemistry with FMOC protected amino acids on a p-alkoxybenzyl alcohol resin. Dried peptides were re-suspended in the HEPES/Triton Binding buffer at a concentration of 10 mg/ml. Peptide inhibition was performed by adding the peptide first to the in vitro translation product and then the GST-fusion followed by the GSH-Sepharose. The binding/washing steps were as previously described. The peptides synthesized and the PTPs they were derived from were: […]

PTP HSCF = assay: In vitro binding assay: GST fusion precipitation of in vitro translated PTP HSCF; details: GST fusion protein ~1 microgram per ml or ~1.5 micromolar; compared with polyclonal anti-PTP HSCF antibody; FIG. 3
Experimental: The binding was carried out according to the method of Wong and Johnson (Wong et al., J. Biol. Chem. 271(35):20981-20984 (1996)). Briefly, 1 μg of plasmid with either the PSTPIP protein or PTP HSCF under the control of the Sp6 promoter was in vitro transcribed/translated using the Promega TnT Rabbit Reticulocyte system. Samples were diluted in 50 mM HEPES, pH 7.2, 1% triton X 100, 10% glycerol, 100 mM NaCI, 5 mM EDTA and 2 μg/ml each of leupeptin, pepstatin, aprotinin, and PMSF. […] This was reacted for 1 hour at 4° C. and then the resin washed 6 times in HEPES/Triton binding buffer before SDS gel electrophoresis. The peptides were synthesized on an automated Milligen 9050 Peptide Synthesizer using standard solid phase chemistry with FMOC protected amino acids on a p-alkoxybenzyl alcohol resin. Dried peptides were re-suspended in the HEPES/Triton Binding buffer at a concentration of 10 mg/ml. Peptide inhibition was performed by adding the peptide first to the in vitro translation product and then the GST-fusion followed by the GSH-Sepharose. The binding/washing steps were as previously described. The peptides synthesized and the PTPs they were derived from were:
In order to characterize the regions involved with the binding between PTP HSCF and PSTPIP, a rapid and direct in vitro binding assay was performed. […]

[4] = molecular target: T2, in vitro transcribed and translated PSTPIP (murine); assay: peptide competition of the pull-down of in vitro translated PSTPIP by GST-PST-rich+CTH PTP HSCF
T2 chain: T1 sequence (P97814 1-415)

Work on PXXP-PEP peptide (PTP PEP 782-800) yielded a concentration at which the peptide blocks the interaction (as low as) [1] of 800 nM.

For PXXP-PEST peptide (PTP PEST 761-780), the concentration at which the peptide blocks the interaction (as low as) [1] was 800 nM.

With pervanadate the “phosphotyrosine content of PSTPIP in the absence versus presence of the inhibitor” value ([2]; anti-phosphotyrosine blot, FIG. 6A) was “lower phosphotyrosine content”.

PXXP-HSCF peptide (PTP HSCF 432-451) was tested, and the concentration at which the peptide blocks the interaction (as low as) [1] was 800 nM.

`[O]=[V]([O-])([O-])[O-]` [vanadate] was tested, and the “tyrosine phosphorylation of endogenous PSTPIP” value ([2]; with tyrosine phosphatase inhibitor, FIG. 6) was “significantly enhanced”.

For GGVLRSISVPAPPTLPMADT [control peptide], the “ability to block the PTP HSCF-PSTPIP interaction” value [3] was “completely unable to block the interaction”.

B1: GST PSTPIP: GST fusion protein containing full-length PSTPIP (amino acids 2-415) (protein)
chain: MAQLQFRDAFWCRDFTAHTGYEVLLQRLLDGRKMCKDVEELLRQRAQAEERYGKELVQIARKAGGQTEMNSLRTSFDSLKQQTENVGSAHIQLALALREELRSLEEFRERQKEQRKKYEAIMDRVQKSKLSLYKKTMESKKAYDQKCRDADDAEQAFERVSANGHQKQVEKSQNKAKQCKESATEAERVYRQNIEQLERARTEWEQEHRTTCEAFQLQEFDRLTILRNALWVHCNQLSMQCVKDDELYEEVRLTLEGCDVEGDINGFIQSKSTGREPPAPVPYQNYYDREVTPLIGSPSIQPSCGVIKRFSGLLHGSPKTTPSAPAASTETLTPTPERNELVYASIEVQATQGNLNSSAQDYRALYDYTAQNSDELDISAGDILAVILEGEDGWWTVERNGQRGFVPGSYLEKL
With B1 the “efficiency of precipitating in vitro translated PTP HSCF” value (PTP HSCF) was “more efficient at precipitating the phosphatase”.

B2: PXXP-CONTROL peptide (PTP HSCF 334-353) (peptide)
peptide: GGVLRSISVPAPPTLPMADT
B2: no binding [4].
